Data on 14 molecules can be found in patent publication US20200095340A1.

Substitutions are numbered along the chain they refer to. Names may count otherwise.

To fix the notation:
B1: anti-DLL3 trispecific protein containing 4H05 (protein, part only; not given: CD3 binder and albumin binder, part only)
chain, part: EVQLVESGGGLVQPGGSLTLSCAASGSSVSRLSMAWYRQAPGKKRELVAGISARGSTDYIDSVKGRFTISRDNAKNSVYLQMNSLRAEDTAVYYCYAYRWTTRSTYWGQGTLVTVSSGGGGSGGGSGGGGSGGGSHHHHHH
B2: anti-DLL3 trispecific protein containing 4A010 (protein, part only; not given: anti-CD3 and anti-albumin domains, part only)
chain, part: B1 chain, part with S30R, R31F, R54D, D58V, S104Y, T105K
B3: anti-DLL3 trispecific protein, DLL3 binder 2E02 (protein, part only; not given: anti-CD3 fragment and anti-albumin domain, part only)
chain, part: EVQLVESGGGLVQPGGSLTLSCVASGSTSAINAMGWYRRAPGKQRELVAGISSDGSKVYVDSVKGRFTISRDNAKNSVYLQMNSLRAEDTAVYYCYYFRTVSGSSQRYWGQGTLVTVSSGGGGSGGGSGGGGSGGGSHHHHHH
B4: anti-DLL3 trispecific protein, DLL3 binder 2E05 (protein, part only; not given: CD3 binder and albumin binder, part only)
chain, part: B3 chain, part with T28P, A30S, M34Y, V60S, Q106M, R107S
B5: anti-DLL3 trispecific protein, DLL3 binder 2H02 (protein, part only; not given: anti-CD3 fragment and anti-albumin domain, part only)
chain, part: B3 chain, part with A30S, G35A, V48A, V60A, R99H, Q106M
B6: anti-DLL3 trispecific protein, DLL3 binder 1A011 (protein, part only; not given: anti-CD3 fragment and anti-albumin domain, part only)
chain, part: B3 chain, part with A30S, M34I, V60I, Q106Y
B7: anti-DLL3 trispecific protein, DLL3 binder 1H012 (protein, part only; not given: CD3 binder and albumin binder, part only)
chain, part: B3 chain, part with A30S, Q106M, R107P
B8: anti-DLL3 trispecific protein, DLL3 binder 3C04 (protein, part only; not given: CD3 binder and albumin binder, part only)
chain, part: B1 chain, part with S28H, R31F, R54D, S56P, T101D, S104Y
B9: anti-DLL3 trispecific protein, DLL3 binder 4D09 (protein, part only; not given: anti-CD3 fragment and anti-albumin domain, part only)
chain, part: B1 chain, part with S30K, R31F, R54D, D61L, R99E, S104Y
B10: anti-DLL3 trispecific protein, DLL3 binder 4H011 (protein, part only; not given: CD3 fragment and albumin sdAb, part only)
chain, part: B1 chain, part with A53V, R54D, S104L
B11: anti-DLL3 trispecific protein containing 1H012 (protein, part only; not given: anti-CD3 fragment and anti-albumin sdAb, part only)
chain, part: B3 chain, part with A30S, Q106M, R107P
B12: anti-DLL3 trispecific protein containing 2E05-M106Q (protein, part only; not given: CD3 binder and albumin binder, part only)
chain, part: B3 chain, part with T28P, A30S, M34Y, V60S, R107S
B13: anti-DLL3 trispecific protein containing 4D09-M34L (protein, part only; not given: anti-CD3 fragment and anti-albumin sdAb, part only)
chain, part: B1 chain, part with S30K, R31F, M34L, R54D, D61L, R99E, S104Y
B14: anti-DLL3 trispecific protein containing 4H011 (protein, part only; not given: CD3 binder and albumin binder, part only)
chain, part: B1 chain, part with A53V, R54D, S104L

Chain of human DLL3 on DMS-153 cells (human) (Q9NYJ7 27-618 limits assumed): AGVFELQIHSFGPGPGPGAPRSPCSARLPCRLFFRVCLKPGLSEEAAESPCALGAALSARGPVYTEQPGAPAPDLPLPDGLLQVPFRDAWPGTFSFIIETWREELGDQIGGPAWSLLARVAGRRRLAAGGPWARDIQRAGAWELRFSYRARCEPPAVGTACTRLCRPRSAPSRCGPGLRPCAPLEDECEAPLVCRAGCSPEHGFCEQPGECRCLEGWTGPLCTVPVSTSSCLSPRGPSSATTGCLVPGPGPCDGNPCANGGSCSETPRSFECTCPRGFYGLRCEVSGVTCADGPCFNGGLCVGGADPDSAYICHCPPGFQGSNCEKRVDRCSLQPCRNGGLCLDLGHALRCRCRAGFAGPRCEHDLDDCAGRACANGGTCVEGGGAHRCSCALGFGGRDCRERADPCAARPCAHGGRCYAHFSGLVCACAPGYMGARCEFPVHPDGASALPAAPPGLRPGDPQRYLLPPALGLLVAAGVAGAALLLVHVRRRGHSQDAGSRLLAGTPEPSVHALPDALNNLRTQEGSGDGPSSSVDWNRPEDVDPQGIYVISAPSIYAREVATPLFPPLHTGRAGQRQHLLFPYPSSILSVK

The target in the first assay is biotinylated version of human DLL3 protein expressed as a human IgG1 fusion protein (human) (UniProt Q9NYJ7). Description: Octet BLI, biotinylated DLL3-IgG1 on streptavidin tips, single 50 nM. (Biolayer interferometry detects binding as a change in optical thickness at a sensor tip.)
Chain of biotinylated version of human DLL3 protein expressed as a human IgG1 fusion protein (human) (Q9NYJ7 27-492 limits assumed): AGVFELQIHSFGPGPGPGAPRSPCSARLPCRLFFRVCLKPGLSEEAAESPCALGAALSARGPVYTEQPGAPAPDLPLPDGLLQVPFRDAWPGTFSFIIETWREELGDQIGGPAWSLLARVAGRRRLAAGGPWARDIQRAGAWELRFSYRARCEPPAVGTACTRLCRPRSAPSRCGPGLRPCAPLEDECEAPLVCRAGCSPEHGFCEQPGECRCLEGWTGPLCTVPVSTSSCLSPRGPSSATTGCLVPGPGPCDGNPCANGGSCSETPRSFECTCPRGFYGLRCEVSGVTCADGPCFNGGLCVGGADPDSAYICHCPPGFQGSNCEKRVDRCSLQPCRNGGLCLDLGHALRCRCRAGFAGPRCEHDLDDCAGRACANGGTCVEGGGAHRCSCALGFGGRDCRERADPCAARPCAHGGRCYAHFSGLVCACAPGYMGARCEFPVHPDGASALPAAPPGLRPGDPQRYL
As for B1, the dissociation constant Kd – broadly, the constant that tells how readily two partners part at equilibrium – stood at 64 nM.
Still for that read-out and setting: the same measure for B2: 2.3 nM.

A further assay has as its target human DLL3 on DMS-153 cells (human) (UniProt Q9NYJ7). Description: cell-based or functional assay.
B3: the DMS-153 TDCC EC50 (conditioned medium, human T cells) came out at 0.059 nM and the TDCC EC50 (CHO expressed, purified protein; method of Example 2, DMS-153 cells) was 0.12 nM.
On to B4, for which the DMS-153 TDCC EC50 (conditioned medium, human T cells) stood at 0.033 nM and the TDCC EC50 (CHO expressed, purified protein; method of Example 2, DMS-153 cells) turned out to be 0.072 nM.
For B5 the same measures were 0.031 nM and 0.096 nM.
For B6 the same measures were 0.051 nM and 0.17 nM.
For B7 the same measures were 0.028 nM and 0.063 nM.
For the molecule B8, the DMS-153 TDCC EC50 (conditioned medium, human T cells) came out at 0.052 nM.
In turn, B9 registered a DMS-153 TDCC EC50 (conditioned medium, human T cells) of 0.052 nM and a TDCC EC50 (CHO expressed, purified protein; method of Example 2, DMS-153 cells) of 0.06 nM.
Consider B10, for which the DMS-153 TDCC EC50 (conditioned medium, human T cells) was determined as 0.036 nM.

The target of the next assay is human DLL3 on DLL3 expressing cancer cell lines (human) (UniProt Q9NYJ7). Description: cell-based or functional assay.
Chain of human DLL3 on DLL3 expressing cancer cell lines (human) (Q9NYJ7 27-618 limits assumed): as the sequence (Q9NYJ7 27-618 limits assumed) above
Molecule B11 registered a TDCC EC50, DMS-153 cells of 28 nM and a fold increase in TDCC potency over DH43 of more than 7 fold.
On to B12, for which the TDCC EC50, DMS-153 cells, purified CHO protein came out at 41 nM and the fold more potent in TDCC than DH43 came to 6.6 fold.
Molecule B13 came in with a TDCC EC50, DMS-153 cells, purified CHO protein of 54 nM and a fold more potent in TDCC than DH6 of 4.4 fold.
Molecule B14 gave a TDCC EC50, DMS-153 cells of 36 nM and a fold increase in TDCC potency over DH6 of more than 8 fold.

In another assay the target is biotinylated human DLL3 protein expressed as a human IgG1 fusion protein (human) (UniProt Q9NYJ7). Description: Octet, several concentrations of trispecific (60, 20, 6.67, 2.22 nM), human DLL3.
Chain of biotinylated human DLL3 protein expressed as a human IgG1 fusion protein (human) (Q9NYJ7 27-492): as the sequence (Q9NYJ7 27-492 limits assumed) above
The molecule B3 returned an equilibrium dissociation constant (Kd) of 4.4 nM.
The same measure, in the same setting: the same measure for B4: 3.5 nM; for B5: 4.4 nM.
The same measure, in the same setting: the same measure for B6: 3.5 nM; for B7: 2.9 nM.
The same measure, in the same setting: to B8 belongs 4 nM.
On to B9, for which the Kd amounted to 8.1 nM.
The same measure, in the same setting: to B10 belongs 3.9 nM.

The target of the next assay is cynomolgus DLL3 protein (cynomolgus). Description: Octet, single concentration of trispecific (60 nM), cynomolgus DLL3.
Chain of cynomolgus DLL3 protein (cynomolgus) (chain, as listed by the source): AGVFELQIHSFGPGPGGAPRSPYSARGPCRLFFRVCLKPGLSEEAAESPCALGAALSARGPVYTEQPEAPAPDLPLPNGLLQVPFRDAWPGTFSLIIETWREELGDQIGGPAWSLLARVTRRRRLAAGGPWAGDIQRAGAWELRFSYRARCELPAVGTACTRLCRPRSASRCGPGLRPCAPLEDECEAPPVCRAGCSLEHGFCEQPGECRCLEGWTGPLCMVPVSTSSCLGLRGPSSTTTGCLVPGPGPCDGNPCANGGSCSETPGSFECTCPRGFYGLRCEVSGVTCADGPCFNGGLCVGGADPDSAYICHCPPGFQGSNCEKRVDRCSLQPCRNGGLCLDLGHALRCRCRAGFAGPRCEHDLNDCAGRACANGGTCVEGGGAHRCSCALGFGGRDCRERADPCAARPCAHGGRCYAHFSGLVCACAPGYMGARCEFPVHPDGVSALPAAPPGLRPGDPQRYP
B3: the Kd is 3.4 nM.
The same measure, in the same setting: the same measure for B4: 4.8 nM.
Turning to B5, the Kd was 5.2 nM.
On the same count and under the same terms, to B6 belongs 3.6 nM; to B7, 4.3 nM.
The same measure, in the same setting: the same measure for B8: 5.7 nM; for B9: 8.2 nM; for B10: 5.7 nM.
